Measurements published in patent publication US20130303726.

System: MBP-SpC33Leu fusion protein

Substance: enterokinase
- cleavage of the fusion protein, MALDI-MS: No detectable amounts of MBP-linker-SP-C33(Leu) were observed, suggesting that the applied proteolytic reaction conditions result in a quantitative process
